Test results: the DeepSol protein solubility set

Test: soluble on expression in E. coli; label from the status in PepcDB or PDB records

| Sequence | soluble on expression in E. coli |
| --- | --- |
| MGSDKIHHHHHHMKAMAMTPKPTAAIVGMGDAYASMQDRKDPIQLAVAATHKALADAGITKDQVDAVFTGRSPWADKRSQWSNIFCSHMHMPVTITSEITMHGAGLNATVAMAAQMIAAGRAQYVLCLQSDATELFVDAVAMGAEADADPQFEIPYGPTIPALYAQAACRYFHEFGITEEDLADVAIANQSWAMHHPHAAKARFGSIDRAKVLSSPYVATPLRRWMCSTWGGGTGGALVVTSVDNARTAQDPVYVMGYGSATTHEYLGDRMNMRRCRYPSLGAFPNLTHTATAEAARQAYESSGLTPADIDMAQISVNFAHMGPLIMEDLGFAAKGRGMDLYRAGRTGVDGDLPIDTNGGWLSFGQPGISCNMDSYAEAVRQLRGNALGRAPARRPRTVLVQGSGGMLAAGSVTILASEL | not soluble |
| MGSDKIHHHHHHMPQISVTILRGADTIGGSCVKINHGEDSIVLDYGAPLMDSTGVSIDADLASSPSMENGILLDIQQQDTRPPLAYLLSHAHPDHYGLLRSLPKSSNIYLSDSSYSMMTIGNLFYPEALRFSSLEQCRQFTPGKPFQVGPFTVTAFLMDHSAFGACSLLIEVDGKQVYYTGDFRGHGRKSQVSDYIYANVKQPDLMLLEGTTLNGGHSLQFPTEVSVEDAMVSALNEGDGPAFVSASGSNIDRIVSLYNATKRTGKELVIDLYQLYLLEALKKYSPSLPPHKNDHLKVIFPQFQLAIIKSEFGDDFLRYSNRHVNLSKLKGTNYVFRLSPYAMTPYLDSFKEKGVKPKLIYSMWLGYQSKQPKFAEIANKYQESWQYIHTSGHAYLEHLQSFAGNISPKVLVPIHTLNRDKFSSYFDNVRIVENGESIVCE | not soluble |
| MPVIPKSGRLAAVGVLGRIVDVLMRLSLLIRGAVPGGVAAAAATRYRDRIDTGTTATYYGRVVREGGYVVLQYWFFYAMNDWRSVYGGVNDHEADWEKVTVYLVEEENGEYRPVWVGASSHEYLGDDLRRRWDDPELHRDGNHPIIYVGAGSHSHQMLPGDYLIQVDPAFLRGVLRAWRRFTARFLPSSSRLRGIGVPFVDYARGDGVRVGPGGERTWTPVLIDDTTPWVRGYRGLWGRNTRDWFDGERAPSGPRYERLEHHHHHH | soluble |
| KDIYASMETARREGKSFNTWKKGLVDEMERKGWVAGRDKKLGRGLDGTLLADPKTGEYFGTPRRLNTIYRVNMQAAYSGARYQRMMDNVDNRPYWKYSAVSDSRTRPAHLALNGRVYRYDAPFWATFYPPNGFNCRCTVI | not soluble |
| QNLGAAVAILGGPGTVQGVVRFLQLTPERCLIEGTIDGLEPGLHGLHVHQYGDLTNNCNSCGNHFNPDGASHGGPQDSDRHRGDLGNVRADADGRAIFRMEDEQLKVWDVIGRSLIIDEGEDDLGRGGHPLSKITGNSGERLACGIIARSAGLF | soluble |
| MNLMLCCTPLQVLIARKIIELHPNEQFFGVMFGGVWDKKRTLYASKLAEVCSDSMNIDTGKDLKGFDFLKLMRQLKNKITHKGFDKVFLANLNSLWLQTYLSHVSFKELYTFDDGSDNIFPHPNLLREPGTFKYKLIKAFIGDKYSVNKLFKKIKKHYTVYPNYKNIVSNIEPISLWDNQIDCEIDGEVSFFIGQPLLNTKEENISLIKKLKDQIPFDYYFPHPAEDYRVDGVNYVESELIFEDYVFKHLSNKIIIYTFFSSVAFNLLSHPNVEIRFIRTSIPRWQFCYDSFPDLGLTIYKEILEHHHHHH | soluble |
| MLPNNQWQIPINNGLTHQENMAAHAAVMKLRVHDLQSIISQLSLRKPRPQKSEHQKVVVESLRDPHHARQIYQMVISLIFSSLQASNFPNGNYEMQKRPATTSQVRSHPYVLPSRSGASNHLVNHHYQQQQQQQPQPHNLLHQQMMASHHSHLQQQHHPSTVRWLTPELLEEQLRGSMRYGAPAAAAATNAPLHSSFPNHGRSSQQSLQKSEKSNRPKKMYADNFEPLPLPFYDVISVLLKPVELHSSDSPTLKQTKQLQFPFLLTAEHISKISYRADVTPLPRYELQLRFFNLTEPVQGPQKDDFPLNCYARVDDSVVQLPNVIPTNKTNAEPKRPSRPVNITSNMNRYKKEHTVAVEWLADKRVWAAGVYFVHRVNSDILFKRLNQNVSRHRSLEVTKQEVIKKLSGGEDDIAMDRLNISLLDPLCKTRMTTPSRCQDCTHLQCFDLLSYLMMNEKKPTWQCPVCSSNCPYDRLIVDDYFLDMLAKVDKNTTEVELKEDGSYDVIKEEAFCISDDDDDDVVPATVNGTASCSSTNGNGLANEAAKKKPADDDIITLSDDDDEELNRGIMNSLNDSFSPGRHTASAELAAQKTPPQQKKKTKDDDIEIITLDDTPPRPVAASANLPMRQMSQQNQMPVGSSPSGMASTQMGMNEGASKTIRDALNKIGEQSANSSTQSSPLVQLHHTTHPLNFAQSSYMNPSSGSQTPTSQYGYSPMINQAPHFQMQNGLIGRNNQMVHMQQHHLQQQQQQQQSPQIMSPSFYAQQQMSNGGAFAYYPPQYPQQQYRQN | not soluble |
| MAHHHHHHSLNTNLKPKLQRFASATAFACPICQENLTLLETNFKCCNRHSFDLAKFGYVNLAPQIKQSANYDKENFQNRQQILEAGFYQAILDAVSDLLASSKTTTTILDIGCGEGFYSRKLQESHSEKTFYAFDISKDSVQIAAKSEPNWAVNWFVGDLARLPIKDASMDILLDIFSPANYGEFRRVLSKDGILIKVIPTENHLKEIRQRVQDQLTNKEYSNQDIKEHFQEHFTILSSQTASLTKTITAEQLQALLSMTPLLFHVDQSKIDWSQLTEITIEAEILVGKAFEG | soluble |
| MAHHHHHHMKSTRTTAKVRPACLPYSTTMRSSRQTSSLLSRVAHSVGAVVAKANLLRQSPSREAHRPSGPAEGLRPSSSSAKPPVLASGDILRDLAFFTQASEVGFFSTHPSLCAQVFGVVPGDVFEVGGGCAVTSSSVVDVDAGSRMAREAIVVVGARSGKLWVWAYGDEAARVLRVPSSTTSAMLSSAVEVRAAIVEHYQLRQLVHPSRRQCSAGGGKAMEQDAQVEFARTVCEAFQSLCARAHEEVQRLYTPDQLAFLQRAPDLYAAATKRVDRVASSLDDASPTAGVNSEPQRQQPNHPPDGSSSFLPRSIYSDIARHAQHAAAVVLLAPRVSLVTGAVGWVGEGDVVLADSLVSQGGCAEASLSASVVI | soluble |
| MELYETSPYFYQEPRFYDGENYLPVHLQGFEPPGYERTELTLSPEAPGPLEDKGLGTPEHCPGQCLPWACKVCKRKSVSVDRRRAATLREKRRLKKVNEAFEALKRSTLLNPNQRLPKVEILRSAIQYIERLQALLSSLNQEERDLRYRGGGGPQPGVPSECSSHSASCSPEWGSALEFSANPGDHLLTADPTDAHNLHSLTSIVDSITVEDVSVAFPDETMPN | soluble |
| MGSSHHHHHHSSGLVPRGSHMDRKTEFIECTNAFNEKPKKGIPMLIEKGFIASDSDKDIAEFLFNNNNRMNKKTIGLLLCHPDKVSLLNEYIRLFDFSGLRVDEAIRILLTKFRLPGESQQIERIIEAFSSAYCENQDYDPSKISDNAEDDISTVQPDADSVFILSYSIIMLNTDLHNPQVKEHMSFEDYSGNLKGCCNHKDFPFWYLDRVYCSIRDKEIVMPEEHHGNE | soluble |
